Assays:
[1] = test system: Insect-expressed epitope-tagged human phosphodiester α-GlcNAcase lacking the pro-sequence
[2] = test system: CHO-expressed epitope-tagged, soluble human phosphodiester α-GlcNAcase

Furin
Western blot of cleavage; UCE activity [1]: the insect-derived UCE is not cleaved by furin as shown by the single UCE form
UCE activity, % increase relative to the minus Furin samples [2]: up to 130% increase in activity
Western blot of cleavage (pro-UCE to mature UCE) [2]: the CHO-derived UCE is sensitive to furin cleavage as shown by the progressive conversion of the pro-UCE to the mature form
